44 variants from the Human Domainome abundance scans (Beltran et al. 2025) can be followed below.

The chains are these.
B1: Ras GTPase-activating protein 1, residues 281 to 341; numbered along this chain, P20936 (parent)
chain: RRRVRAILPYTKVPDTDEISFLKGDMFIVHNELEDGWMWVTNLRTDEQGLIVEDLVEEVGR

± gives the uncertainty stated by the source.

The variants in this data set derive from B1. Put plainly: abundance fitness (aPCA) (normalised: wild type 0, dead -1); higher = more abundant; growth selection in yeast, the domain comes from the species named. Conditions: Homo sapiens.
As to RRRFRAILPYTKVPDTDEISFLKGDMFIVHNELEDGWMWVTNLRTDEQGLIVEDLVEEVGR [V4F], the abundance fitness was -0.082 ± 0.021.

In the case of RRRMRAILPYTKVPDTDEISFLKGDMFIVHNELEDGWMWVTNLRTDEQGLIVEDLVEEVGR [V4M], the abundance fitness was -0.074 ± 0.032.

Regarding RRRVRAILPYTKVPDTDEISFLKGDMFIVHNELEMGWMWVTNLRTDEQGLIVEDLVEEVGR [D35M], the abundance fitness is -0.142 ± 0.069.

In the case of RRRVRAILPYTKVPDTDEISFLKGDMFIVHNELEDGWMWVTNLRTDEQGLIVEDLVEEVYR [G60Y], the abundance fitness is -0.058 ± 0.1.

With RRRVRAILPYTKVPDTDEISFLKGDMFIVHNELEDGWMWVTNLRTDEQGLIVEDLVEEVDR [G60D], the abundance fitness was -0.063 ± 0.057.

Turning to RRRVRAILPMTKVPDTDEISFLKGDMFIVHNELEDGWMWVTNLRTDEQGLIVEDLVEEVGR [Y10M], the abundance fitness is -0.577 ± 0.096.

As to RRRVRAILPYTKVPDTDEISFLKGDMFIVHNELEDGWMWVTNLDTDEQGLIVEDLVEEVGR [R44D], the abundance fitness was -0.885 ± 0.087.

In the case of RRRVRAILPYTKVPDTDEISFLKGDMFIVHNELEDGWMWVTNLNTDEQGLIVEDLVEEVGR [R44N], the abundance fitness is -0.224 ± 0.03.

CRRVRAILPYTKVPDTDEISFLKGDMFIVHNELEDGWMWVTNLRTDEQGLIVEDLVEEVGR [R1C]: the abundance fitness is -0.065 ± 0.031.

GRRVRAILPYTKVPDTDEISFLKGDMFIVHNELEDGWMWVTNLRTDEQGLIVEDLVEEVGR [R1G]: the abundance fitness is -0.098 ± 0.047.

In the case of RRRVFAILPYTKVPDTDEISFLKGDMFIVHNELEDGWMWVTNLRTDEQGLIVEDLVEEVGR [R5F], the abundance fitness is -0.398 ± 0.031.

Regarding RRRVRAILPYTKVPVTDEISFLKGDMFIVHNELEDGWMWVTNLRTDEQGLIVEDLVEEVGR [D15V], the abundance fitness was -0.577 ± 0.03.

On to RRRVRAILPYTKVPDTDEISFLKGDMFIVHNELEDGWMWVTLLRTDEQGLIVEDLVEEVGR [N42L], for which the abundance fitness was -0.296 ± 0.034.

For the variant RRRVRAILPYTKVPDTDEISFLKGDMFIVHNELEDGWMWVTALRTDEQGLIVEDLVEEVGR [N42A], the abundance fitness was -0.436 ± 0.033.

On to RRRVRAILPYTKVPDTDEISFLKGDMFIVHNELEDGWMWVTPLRTDEQGLIVEDLVEEVGR [N42P], for which the abundance fitness is -0.874 ± 0.091.

Turning to RRRVRAILPYTKVPDTDEISFLKGDMFIVHNELEDGWMWVTNLRTDEQGLIVEDLEEEVGR [V56E], the abundance fitness is -1.07 ± 0.15.

Consider RRRVRAILPYTKVPDTDEISFLEGDMFIVHNELEDGWMWVTNLRTDEQGLIVEDLVEEVGR [K23E], for which the abundance fitness was found to be 0.006 ± 0.041.

For the variant RRRVRAILPYTKVPDTDEISFLKGDMFIVHNELEDGWMLVTNLRTDEQGLIVEDLVEEVGR [W39L], the abundance fitness was -0.063 ± 0.022.

With RRRVRAILPYTKVPDTDEISFLKGDMFILHNELEDGWMWVTNLRTDEQGLIVEDLVEEVGR [V29L], the abundance fitness is -0.473 ± 0.034.

As for RRRVRAILPYTKVPDTDEISFLKGDMFIPHNELEDGWMWVTNLRTDEQGLIVEDLVEEVGR [V29P], the abundance fitness is -0.959 ± 0.079.

With RRRVRAILPYTKVPDTDEISFLKGDMFIMHNELEDGWMWVTNLRTDEQGLIVEDLVEEVGR [V29M], the abundance fitness was -0.644 ± 0.1.

For RRRVRAILPYTKVPDTDESSFLKGDMFIVHNELEDGWMWVTNLRTDEQGLIVEDLVEEVGR [I19S], the abundance fitness was -0.878 ± 0.042.

Turning to RRRVRAILPYTKVPDTDEISFLKGDMFIVHNELEDGWMWVTNLREDEQGLIVEDLVEEVGR [T45E], the abundance fitness is -0.997 ± 0.12.

Take RRRVRAILPYTPVPDTDEISFLKGDMFIVHNELEDGWMWVTNLRTDEQGLIVEDLVEEVGR [K12P]: the abundance fitness is -0.102 ± 0.037.

Take RRRVRAILPYTIVPDTDEISFLKGDMFIVHNELEDGWMWVTNLRTDEQGLIVEDLVEEVGR [K12I]: the abundance fitness was -1.01 ± 0.062.

RRRVRAILPYTKVPDTDEIMFLKGDMFIVHNELEDGWMWVTNLRTDEQGLIVEDLVEEVGR [S20M]: the abundance fitness is -1.09 ± 0.2.

For RRRVRAILPYTKVPDTDEIEFLKGDMFIVHNELEDGWMWVTNLRTDEQGLIVEDLVEEVGR [S20E], the abundance fitness is -0.641 ± 0.08.

Consider RRRVRAILPYTKVPDTDEIYFLKGDMFIVHNELEDGWMWVTNLRTDEQGLIVEDLVEEVGR [S20Y], for which the abundance fitness was -0.881 ± 0.063.

RRRVRAILPYTKVPDTDEIKFLKGDMFIVHNELEDGWMWVTNLRTDEQGLIVEDLVEEVGR [S20K]: the abundance fitness was -0.853 ± 0.12.

For RRRVRAILPYTKVPDTDEILFLKGDMFIVHNELEDGWMWVTNLRTDEQGLIVEDLVEEVGR [S20L], the abundance fitness was -1.07 ± 0.095.

In the case of RRRVRAILPYTKVPDTDEITFLKGDMFIVHNELEDGWMWVTNLRTDEQGLIVEDLVEEVGR [S20T], the abundance fitness is -0.171 ± 0.035.

On to RRRVRAILPYTKVPDTDEISFLKGDMFIVGNELEDGWMWVTNLRTDEQGLIVEDLVEEVGR [H30G], for which the abundance fitness was -0.444 ± 0.028.

On to RRRVRAILPYTKVPDTDEISFLKGDMFIVENELEDGWMWVTNLRTDEQGLIVEDLVEEVGR [H30E], for which the abundance fitness came to 0.008 ± 0.077.

As for RRRVRAILPYTKVPDTDEISFLKGDMFIVINELEDGWMWVTNLRTDEQGLIVEDLVEEVGR [H30I], the abundance fitness is -0.163 ± 0.03.

With RRRVRAILPYTKVPDTDEISFLKGDMFIVWNELEDGWMWVTNLRTDEQGLIVEDLVEEVGR [H30W], the abundance fitness is -0.153 ± 0.045.

As for RRRVRAILPYTKVPDTDEISFLKGDMFIVHNWLEDGWMWVTNLRTDEQGLIVEDLVEEVGR [E32W], the abundance fitness is -0.103 ± 0.049.

RRRVRAILWYTKVPDTDEISFLKGDMFIVHNELEDGWMWVTNLRTDEQGLIVEDLVEEVGR [P9W]: the abundance fitness is -0.805 ± 0.095.

Take RRRVRAILPYTKVPDTDEISFLKGDMFIVHNELEDGWMWKTNLRTDEQGLIVEDLVEEVGR [V40K]: the abundance fitness was -0.682 ± 0.1.

Turning to RRRVRAILPYTKVPDTDEISFLKGDMFIVHNELEDGWMWVTNLRTDEQGLIVEDGVEEVGR [L55G], the abundance fitness is -0.348 ± 0.028.

Take RRRVRAILPYTKVPDTDEISFLKGDMFIVHNELEDGWMWVTNLRTDEQGLIVEDIVEEVGR [L55I]: the abundance fitness was -0.241 ± 0.034.

As for RRRVRAILPYTKVPDTDEISFKKGDMFIVHNELEDGWMWVTNLRTDEQGLIVEDLVEEVGR [L22K], the abundance fitness was -0.07 ± 0.073.

Consider RRRVRAILPYTKVPDTDEISFLKGDPFIVHNELEDGWMWVTNLRTDEQGLIVEDLVEEVGR [M26P], for which the abundance fitness is -0.325 ± 0.047.

RRRVRAILPYTKVPDTDEISFLKGDGFIVHNELEDGWMWVTNLRTDEQGLIVEDLVEEVGR [M26G]: the abundance fitness was -0.416 ± 0.03.

In the case of RRRVRAILPYTKVPDTDEISFLKLDMFIVHNELEDGWMWVTNLRTDEQGLIVEDLVEEVGR [G24L], the abundance fitness was -0.885 ± 0.054.
